According to the RNAGym collection of RNA variant scans (doi:10.7554/elife.80360):

B1: Twister Ribozyme (parent)
chain: AACACUGCCAAUGCCGGUCCCAAGCCCGGAUAAAAGUGGAGGGGGCGG

Variants of: B1
Assay: self-cleavage, relative activity (ratio to wild type); higher = more cleavage; co-transcriptional
AACACUGCCAAUGCCGGUCCGAAGCCCGGAUAAAAUUGGAGGGGGCGG gave a self-cleavage of 0.0888.
With AACACUGCCAAUGCCGGUCCGAAGCCCGGAUAAAAAUGGAGGGGGCGG the self-cleavage was 0.0998.
Variant AACACUGCCAAUGCCGGUCCGAAGACCGGAUAAAAGUGGAGGGGGCGG has a self-cleavage of 0.0791.
AACACUGCCAAUGCCGGUCCGAAGCCCGGAUAAAAGUGGAGGGGGUGG showed a self-cleavage of 0.0875.
AACACUGCCAAUGCCGGUCCUAAGCCCGGAUAAAAGUGGAGGGGACGG gave a self-cleavage of 0.123.
Variant AACACUGCCAAUGCCGGUCCUAAGCCCGGAUAAAAGUGGAGGGGCCGG has a self-cleavage of 0.0779.
Variant AACACUGCCAAUGCCGGUCCUAAGCCCGGAUCAAAGUGGAGGGGGCGG has a self-cleavage of 0.107.
Variant AACACUGCCAAUGCCGGUCCUAAGCCCGGAUUAAAGUGGAGGGGGCGG has a self-cleavage of 0.127.
With AACACUGCCAAUGCCGGUCCGAAGCCCGGAUAAAAGUGGCGGGGGCGG the self-cleavage was 0.0546.
In the case of AACACUGCCAAUGCCGGUCCGAAGCCCGGAUAAAAGUGGGGGGGGCGG, the self-cleavage is reported as 0.0831.
Variant AACACUGCCAAUGCCGGUCCUAAGCCCGGAUAAAAGUUGAGGGGGCGG has a self-cleavage of 0.0705.
AACACUGCCAAUGCCGGUCCUAAGCCCGGAUAAAAGUGGAGGGGGUGG showed a self-cleavage of 0.0929.
For AACACUGCCAAUGCCGGUCCUAAGCCUGGAUAAAAGUGGAGGGGGCGG, the self-cleavage was 0.104.
AACACUGCCAAUGCCGGUCCUAAGCCAGGAUAAAAGUGGAGGGGGCGG showed a self-cleavage of 0.0634.
With AACACUGCCAAUGCCGGUCCUAAGCCCGCAUAAAAGUGGAGGGGGCGG the self-cleavage was 0.0653.
With AACACUGCCAAUGCCGGUCCUAAGCCCGAAUAAAAGUGGAGGGGGCGG the self-cleavage was 0.096.
AACACUGCCAAUGCCGGUCCGAAGCCCGGAUAAAAGUGGAGGGGCCGG gave a self-cleavage of 0.0674.
AACACUGCCAAUGCCGGUCCGAAGCCCGGAUAAAAGUGGAGGGGACGG showed a self-cleavage of 0.114.
In the case of AACACUGCCAAUGCCGGUCCGAAGCCCGGAUAAAAGUGGAGGGGUCGG, the self-cleavage is reported as 0.0493.
AACACUGCCAAUGCCGGUCCUAAGCCCGGAUAAAAGUGGAGGGGGCGA gave a self-cleavage of 0.131.
Work on AACACUGCCAAUGCCGGUCCUAAGCCCGGAUAAAAGUGGAGGGGGCGC yielded a self-cleavage of 0.133.
For AACACUGCCAAUGCCGGUCCUAAGCCCGGAUAAAAGUGGAGGGGGCGU, the self-cleavage was 0.125.
In the case of AACACUGCCAAUGCCGGUCCGAAGCCCGGAUAAAAGAGGAGGGGGCGG, the self-cleavage is reported as 0.101.
Variant AACACUGCCAAUGCCGGUCCGAAGCCCGGAUAAAAGCGGAGGGGGCGG has a self-cleavage of 0.0765.
AACACUGCCAAUGCCGGUCCAAAGCCCGGAUAAAAGUGGAGGGGGCGU gave a self-cleavage of 0.154.
For AACACUGCCAAUGCCGGUCCAAAGCCCGGAUAAAAGUGGAGGGGGCGA, the self-cleavage was 0.107.
AACACUGCCAAUGCCGGUCCGAAGCCCGGAUAAAAGUGGAGGGGGCGU showed a self-cleavage of 0.0902.
AACACUGCCAAUGCCGGUCCGAAGCCCGGAUAAAAGUGGAGGGGGCGC gave a self-cleavage of 0.0934.
AACACUGCCAAUGCCGGUCCCCUGCCCGGAUAAAAGUGGAGGGGGCGG showed a self-cleavage of 0.243.
Variant AACACUGCCAAUGCCGGUCCGAAGCCCGGAUAAAAGUGAAGGGGGCGG has a self-cleavage of 0.0549.
With AACACUGCCAAUGCCGGUCCGAAGCCCGGAUAAAAGUGCAGGGGGCGG the self-cleavage was 0.128.
Work on AACACUGCCAAUGCCGGUCCAAAGCCCGGAUAAAAGUGAAGGGGGCGG yielded a self-cleavage of 0.0763.
In the case of AACACUGCCAAUGCCGGUCCAAAGCCCGGAUAAAAGUGUAGGGGGCGG, the self-cleavage is reported as 0.0973.
With AACACUGCCAAUGCCGGUCCUAAGCCCGGAUAAAAGUGGAGAGGGCGG the self-cleavage was 0.0823.
In the case of AACACUGCCAAUGCCGGUCCUAAGCCCGGAUAAAAGUGGAGUGGGCGG, the self-cleavage is reported as 0.0927.
AACACUGCCAAUGCCGGUCCCCAGCCCGGGUAAAAGUGGAGGGGGCGG gave a self-cleavage of 1.16.
For AACACUGCCAAUGCCGGUCCCCAGCCCGGCUAAAAGUGGAGGGGGCGG, the self-cleavage was 1.07.
In the case of AACACUGCCAAUGCCGGUCCUAAGCCCGGAUAAAAGUGAAGGGGGCGG, the self-cleavage is reported as 0.0714.
For AACACUGCCAAUGCCGGUCCGAAGCCCGGAUAAAAGUGGAGUGGGCGG, the self-cleavage was 0.111.
AACACUGCCAAUGCCGGUCCGAAGCCCGGAUAAGAGUGGAGGGGGCGG showed a self-cleavage of 0.0977.
With AACACUGCCAAUGCCGGUCCGAAGCCCGGAUAAUAGUGGAGGGGGCGG the self-cleavage was 0.0291.
Variant AACACUGCCAAUGCCGGUCCAAAGCCCGGAUAAAAGUGGAAGGGGCGG has a self-cleavage of 0.27.
In the case of AACACUGCCAAUGCCGGUCCAAAGCCCUGAUAAAAGUGGAGGGGGCGG, the self-cleavage is reported as 0.129.
Variant AACACUGCCAAUGCCGGUCCAAAGCCCCGAUAAAAGUGGAGGGGGCGG has a self-cleavage of 0.149.
Work on AACACUGCCAAUGCCGGUCCGAAGCCCGGAUAGAAGUGGAGGGGGCGG yielded a self-cleavage of 0.03.
AACACUGCCAAUGCCGGUCCGAAGCCCGGAUACAAGUGGAGGGGGCGG showed a self-cleavage of 0.152.
For AACACUGCCAAUGCCGGUCCUAAGCCCGGACAAAAGUGGAGGGGGCGG, the self-cleavage was 0.103.
AACACUGCCAAUGCCGGUCCUAAGCCCGGAAAAAAGUGGAGGGGGCGG gave a self-cleavage of 0.105.
Variant AACACUGCCAAUGCCGGUCCGAAGCCCGGAUAAAAGUCGAGGGGGCGG has a self-cleavage of 0.0966.
AACACUGCCAAUGCCGGUCCGAAGCCCGGAUAAAAGUUGAGGGGGCGG gave a self-cleavage of 0.0824.
AACACUGCCAAUGCCGGUCCCCAGCCCGGAUCAAAGUGGAGGGGGCGG showed a self-cleavage of 1.08.
In the case of AACACUGCCAAUGCCGGUCCCCAGCCCGGAUGAAAGUGGAGGGGGCGG, the self-cleavage is reported as 0.879.
For AACACUGCCAAUGCCGGUCCCCAGCCCGGAUUAAAGUGGAGGGGGCGG, the self-cleavage was 0.858.
Variant AACACUGCCAAUGCCGGUCCGAAGCCCGUAUAAAAGUGGAGGGGGCGG has a self-cleavage of 0.0841.
